Assay: label from the status in PepcDB records

| Sequence | protein production |
| --- | --- |
| MESITLDIELLQLPETSPMSMKSNQDFVKKLFDQWLALPETNRLVTSLVNDAKAGVALNVMCGGGSSGTNSGSNSPLASMFPARNGPPLSPRNSTGSPRIARQRTGLSNLSSPLKVVSDHVKELIPQFYFEDGRPPPNDLKEQCIAKINSLFYGHEDGLQLQEFKLVTTEICKVPSFFSTSIFKKVDTNNTGFVKREDFIDYWVKGNMLTKEITSQVFTILKQPDHNYLVQDDFKPVLQELLATHPGLEFLQGTPEFQDRYAETVIYRIYYYINRSGNGHLTLRELKRGNLVDAMQHADEEEDINKVLRYFSYEHFYVIYCKFWELDTDHDFLIDKENLIRYSNHALTYRIVDRIFSQVPRKFTSKTEGKMGYEDFVYFILAEEDKSSEPSLEYWFKCIDLDANGVLTRNELQFFYEEQLHRMECMAQEAVLFEDILCQLFDMVKPEDEGFICLNDLKGSKLSGNVFNILFNLNKFMAFETRDPFLIRQERANPTWTEWDRFAHREYIRLSMEEDVEDASNGSAEAWDDSLEVPF | failed |
| MLFNRHNKTTDSLQQTIAEQSRLLEAIDRSMAVIEFDLQGNVLRANANFLQTLGYREDQVTGQPHRLFCTPEYVRSSDYQQLWNRLRSGQFESGTFERVASNGQSLWLEASYNPIRDASGAVYKVVKYALDVTARVQEEVEARNKLDAIDRAMAVIEFNLDGSIIGANSNFLSRMGYSLAEIKGKHHRMFCKPELINSSAYQDFWNRLNRGEFFNGQFERIDRHGRTLWLEANYNPVYDASGRLCKVVKYAADVTQQVEKHEQDAQSASQAYHISVQTRKVAEQGTGVIQQAASEMRQIAENIEGSSSLIARLGERSEQITAIVNTIRAIADQTNLLALNAAIEAARAGDQGRGFAVVADEVRQLAARTSGSTAEISSMIDMIQNETQQAIKSMDGTRERAAKGVQLADQAGTVILQIRDGASEAVEAVSMFANERGAP | failed |
| MAETAPLRVQLIAKTDFLAPPDVPWTTDADGGPALVEFAGRACYQSWSKPNPKTATNAGYLRHIIDVGHFSVLEHASVSFYITGISRSCTHELIRHRHFSYSQLSQRYVPEKDSRVVVPPGMEDDADLRHILTEAADAARATYSELLAKLEAKFADQPNAILRRKQARQAARAVLPNATETRIVVTGNYRAWRHFIAMRASEHADVEIRRLAIECLRQLAAVAPAVFADFEVTTLADGTEVATSPLATEALEHHHHHH | not failed |
| MIEAIAIAIAVLGAVLLLILFARIRAVDAELKLKKHRAKDAGLADLLNYAAVVDDGVIVGKNGSFMAAWLYKGDDNASSTEEQREMVSFRINQALAGLGNGWMVHVDAVRRPAPNYSERGVSSFPDSVSFAIDEERRRLFEGLGAMFEGYFVLTVTWFPPVLAQRKFVELMFDDDAVAPDHTARTTGLIAQFKREITSLESRLSSAVKMTRLRGQKVVSEEGREVTHDDFLSWLQFCVTGLHHPVMLPSNPMYLDAVIGGQELWGGVVPKIGRKFIQVVAIEGFPLESTPGVLSALAELPSEYRWSSRFIFMDQHESLKHLDKFRKKWKQKIRGFFDQVFNTNTGSINQDAAAMVGDAEAAIAEVNSGLVAAGYYTSVVVLMDEDRERLAASALLVEKAVNRLAFAARIETINTLDAYLGSLPGHGVENVRRPLINTMNLADLLPTSSIWTGSATAPCPMYPPLSPALMHCVTVGATPFRLNLHVRDLGHTFMFGPTGAGKSTHLGIIAAQLRRYAGMSIYAFDKGMSMYPLAAGIRAATKGKSGLHFTVAADDDRLAFCPLQFLETKGDRAWAMEWIDTILALNGVNTTPAQRNEIGNAIMSMHASGARTLSEFSVTIQDEAIREAIKQYTVDGSMGHLLDAEEDGLSLSDFTVFEIEELMNLGEKFALPVLLYLFRRIERALKGQPSVIILDEAWLMLGHPAFRAKIREWLKVLRKANCLVLMATQSLSDAANSGILDVIVESTATKIFLPNVYARDEDTSALYRRMGLNARQIEILATAIPKRQYYYVSENGRRLYDLALGPMALAFVGASDKESVATIKSLEAKFGHEWVHEWLAGRGLNLNDYLEAA | failed |
| MHRHVVTKVLPYTPDQLFELVGDVDAYPKFVPWITGMRTWNGRVDGAVSTVDAEAQVGFSFLREKFATRVRRDKDARSIDVSLLYGPFKRLNNGWRFMPEGDATRVEFVIEFAFKSALLDAMLAANVDRAAGKLIACFEARAQQLHGALEHHHHHH | not failed |
| MIDNIIRKKWMLKHVRVIVPLLVLLFSLLLTVFVVYTAYSLQLRHNRTLLENLADRQTMALQQFVDGDIHFIGSAANFFRSSTSDDWVRFHTFAEETLKGSQSLIALQWLVKVEPPQAETFTARMQQRFPEFTLYTVPKTGEIKYGFGTDDQAKYVLSDIYPLNYDNRKLLGFYSERERFKRILADIVVNRRPNVSDKVRLLQDGIDKSIVKDGMLVYHPVFSSEDDRSLLGVMVGVVRLSTYFEKLVQISVMEQDLDMRVIDTGFDSEDSPVLYQSPMWRADDEPKIERKLVLPNRDWVLEFELHQPINHSEEWVLLGLGLGGVIISLLLSYIMRMQLEEKQRLTDMIEERTAELRYLVEHDSLTNIYNRRFFSQHLCKMLDEKQSFTLISFDIDRFKQINDSYGHLAGDYALTHVVDVVKKELVESDIFARFGGDEFAILSSVTDETALYTYLERIRKVVEAEPVMLNAETPLTLTISIGASINCEYSEPEILQSVDDQLYLSKSKGRNRVSIAHNAAR | failed |
| MDEISTGMLLVILAVLLFLSAYFSGSETGMMSINRYRLRHLVQNNHPGAKRVQYLLDRPDRLIGLILIGNNLVNIGASAIATILCLRWFGDAGIVIATFGLTLIILIFSEVTPKTIAALHPERISFPSSLILMPLLKVMYPIVIGMNFITNSFMRLLGVNPKQSQMADALSSDELRTVVNEAGNLIPTSHQEMLVSILDLEKVTVEDVMVPRNEIVGIDISDDWKSIVKQLSNGQHTRVLLYRNEIDDAIGFLHARDIMRLMSKNQFTADKSILVRAARDSYFIPEGTPLNVQLLKFQRRKERIGLVVDEYGDIQGLVTLEDILEEIVGDFTTSMAPAPSESVTLETDGSFLVDGSANLRELNKEMNWDFPTDGPKTLSGLIIEQFGDIPDARLSLRLGGYPVELVEIGDTMIKQIRVFPELYQKPDNQTND | failed |
| MLKVFAMEMKDAKLYGGIGAILQLVGPFVPSIGFILALVGLVLVFLAVKTISEKSGDEGIFNNYLKAFIAQILGIIIFVGIIVATIGTAILKGGMGKLANPMEFMSLIGTILLGFIILWIFYTVAGYFKKKSYENSQYTGTDMFKTAGLLFFIGAILIILGIGVLIILIAEILEIVAFFSLPETSESAPVSA | failed |
| MSTTMKRQGCSSDSGDLRRQPSRLLKRPPALKIVPATPAANNWNTAIPLLSPLALSPESSPVDQPPVEKNQSTAVAVEKTPVFKKWQHPAAPFYYESSTFVPPFVPV | failed |
| MSLDPAHTPDPAHPHDQEAAHAEDPARAIGSARLLDVDPLLDDPGTRIVVCCGSGGVGKTTTAAALGLRAAERGRKVVVLTIDPARRLAQSMGIDSLDNIPRRVKGIDDSASGELHAMMLDMKRTFDEIVEAHADRERAAAILSNPFYQSLSAGFAGTQEYMAMEKLGQLRARDEWDLIIVDTPPSRSALDFLDAPKRLGSFLDGKLIRLLTAPAKLGGRAGMKFLNVGMSMMTGTLGKLLGGQLLKDVQTFVAAMDTTFGGFRTRADATYKLLQAPGTAFLVVAAPERDALREAAYFVERLAAEDMPLAGLVLNRVHGSGAAQLSAERALAAAENLDLAADPGSTENLEESRIVDQEGGKAGLRNSPDTYGSSESPADLTPADQTPASSEGSPATDGAVEQLTAGLLILHAERMQLLSREQRTRDRFAALHPEVAVAEVAALPGDVHDLTGLRDIGDRLAANRPELPTSPGGALEHHHHHH | not failed |
| MNENAPTHKSSHKVKTHTPVSGYHIEDLRTYPTEKLLEIANKLKVENPQEFKRQDLMFEILKTQVTQGGYILFTGILEIMPDGYGFLRGFDGSFSDGHNDTYVSPSQIRRFALRNGDIVTGQVRSPKDQEKYYALLKIEAINYSPSDEIRNRPLFDNLTPLFPDEQIKLEYEPTKVTGRMLDLFSPVGKGQRALIVAPPRTGKTELMKELAQGITSNHPEVELIILLVDERPEEVTDMQRSVKGQVFSSTFDLPANNHIRIAELVLERAKRRVEMGKDVVVLLDSITRLARAYNAVTPSSGKVLSGGVDANALHRPKRFFGAARNIEEGGSLTIIATALIETGSRMDEVIFEEFKGTGNSEIVLARNIADRRIYPAFDILKSGTRKDNILLGKDRLTKVWVLRNVMQQMDDIEALSFVYSKMQQTKDNEEFLNLMNEK | failed |
| MLPHYKQQAVIDSGLAAVGFRPENQRIYPNGSLAAHILGAVDIDNFGIAGIEKWIDANWLADLRGAGLALKGRDLQPVELSIDLRVQYAMEQELGKAVKKFGAAAGAGLLLDVTNGEILALASYPAFDPNNPVDAFKPDRINRVTAGVFEMGSTFKALTTAMALESGRFDLESVVDASRPLSFGRQRIHDYRGKYRPLTVPEAFIHSSNIVMAKMAMTLGPEALRTFLGRFGVLSQLATELPESAAPLRPSSWSEVTTATVSFGHGIAVTPLQASMAVAALANGGRLIRPTFIKDSPVSERTIAESLLSANTSEAIRHLLRLNAAVGSATKADVPGYVIGGKTGTAEKVVQGRYSKVLNVTSFMGIVPADNPRYLLLTLLDEPRGLAETYGNRTSGWNAVPLGGALLHRILPMLLKPVFPSPSSAEAVPVATGEPSVDDSSSD | failed |
| MNQEIAYLHPVKTARALVLVYLCFSVPIVAMGLFVAFIRYGDLPGITVFTALILNALIGFGLLWLGCKAYNWVAARFGGIEVHVRELTPEDRQ | failed |
| MVAVWSAVAALLGVLINNSLSLVIKDYTVQEWRLGIAGYNGAIVGMYWGDSIFSIMGLCLFLVTLLICLLIEFRLRALLIPKQLPILSLPAMVSILVMVFTISLFSFDTNHLLFTGAAEPVLQTYSREVAIILVVSAMAYQYPLATLQTLGISLTGGLVAQWLTGLNLYALVDLWAINLVLAYFSIKTLFLKHARLASLAATFNALLAWIIWYFWFITGLEQLSAPLLIPFIMSSLITLSLYRQYINHNLLQSELWRTFKLMLINRLRAKQCVAITGSGIRKGTLPDYPSGQWLDPKVPITSYTLAEFKASKRCRYLYWKASYDYYQQALTINKNNIDEQLDYLLNHYLSGLFTETVDSLFNTEQHPVYECYGSIKRLYCLDCAKQQAWPPIPLWSQRDLHCQHCSGLLKPQILAADENIDSECYQALQKNMMECGCLLVIGVPTITPVVSMIIENANANKIPIIFIGTIPFGYFVEEKDVQLTGDIAHWLAEINGFINLLHPLKWGCKWKK | failed |
| MAKAQTVTILSPVNGDVIALNKVKDPVFSAGMMGLGFGVQPSSGEVVAPVSGQVTMVAETKHAIGFTTPDDHLEVLVHLGIDTVDLKGAPFTVKVAAGDDVQAGDVIATMDLAAIQAANRQTTVILAVTNTSDKLESLDVVTGAKAAGDVTATGRLNANTFNAKRQNRLPKAGKYDQLAADIVANVGGVENVSSLIHCITRLRFYLKDESKANDDVVRDLKGVIDVAKAGGQYQVVIGPAVTDVYDAIIKQIGPGFSNDSETAKAVAETAAAAQRPTTPWGKVKWGISNLIGVITGSMIPVIGLLAASGILKGILALLTTFNLVSPTAPTYVIINAMGDSVFYFLPIFVGFTAGKKLGADPVIMGIIGGVLTYPAIVTMASGKATSTLLGMGINANFFGLPVHVASYTYSIFPMIAGAWLASKLEPWLKRVIPTVLRMIFVPLFEVVIVSGAILLFLGPIITVLSTGLANIIVWVYNLSPAISGLIIGGFYQVLVIFGLHWAVIPIVANDIATTGHSYLNAIVSATMVAQGGAVFAIALKSKLANIQELAWPATISAFCGVTEPAMYGINLKYGRAFVTASIGAAVGGFLTGLMNVNMWGFTGSLIGFTSFVNPKGLDFSFYGFLIASAATIVVSFALTWMFGFKDEDANAVKVAPKKRHLGATA | failed |
| MTSGSRWDGIIPHPGILAFAMALYLLGFVLDASGRPLAYGFLTGDMVVHFFTFPGLREQFIDYLLATAFWIFISNITQVTVFIFSLATFYPVLKIFVLAGALLHNLLVGWGVRGLLIYAGTLHLHLEVTGCLLSLQAALVFVRSLLGTIQHRSRGPLVTALRENLAYLIPLIILLFAIAAILEVFWSTWWVYNLTHGPVSWRYFYTHVFSVEL | failed |

Source: a protein production outcome set (Wang et al. 2014)
